# Target: the molecule itself
# Experiment: SEC; fluorescence-detection size-exclusion chromatography (FSEC); heat-treated (42 °C) samples of each construct compared with a heat-untreated sample
row,Protein,stoichiometry N
1,"human TRPV3 single-cysteine construct A131C (cysteine-free background, K169A) (natural protein, UniProt Q8NET8 1-790, looked up, C131 labelled with sulfo-Cy3 maleimide or sulfo-Cy5 maleimide (1:1 mixture) in the FRET samples, human TRPV3, full length; printed as A131C on the cysteine-free construct, so the native C131 stands again and the other 12 cysteines are replaced; K169A added; Homotetrameric channel in DDM/CHS with lipids; also called hTRPV3 A131C; ARD construct; source: Sf9 cells, baculovirus (Bac-to-Bac), purified (DDM/CHS solubilisation, anti-FLAG resin)) MKAHPKEMVPLMGKRVAAPSGNPAILPEKRPAEITPTKKSAHFFLEIEGFEPNPTVAKTSPPVFSKPMDSNIRQAISGNADDMDSPQSPQDDVTETPSNPNSPSAQLAKEEQRRKKRRLKKRIFAAVSEGCVEELVELLVELQELARRRHDEDVPDFLMHKLTASDTGATALMKALLNINPNTKEIVRILLAFAEENDILGRFINAEYTEEAYEGQTALNIAIERRQGDIAALLIAAGADVNAHAKGAFFNPKYQHEGFYFGETPLALAAATNQPEIVQLLMEHEQTDITSRDSRGNNILHALVTVAEDFKTQNDFVKRMYDMILLRSGNWELETTRNNDGLTPLQLAAKMGKAEILKYILSREIKEKRLRSLSRKFTDWAYGPVSSSLYDLTNVDTTTDNSVLEITVYNTNIDNRHEMLTLEPLHTLLHMKWKKFAKHMFFLSFLFYFFYNITLTLVSYYRPREEEAIPHPLALTHKMGWLQLLGRMFVLIWAMLISVKEGIAIFLLRPSDLQSILSDAWFHFVFFIQAVLVILSVFLYLFAYKEYLAFLVLAMALGWANMLYYTRGFQSMGMYSVMIQKVILHDVLKFLFVYIVFLLGFGVALASLIEKAPKDNKDASSYGSFSDAVLELFKLTIGLGDLNIQQNSKYPILFLFLLITYVILTFVLLLNMLIALMGETVENVSKESERIWRLQRARTILEFEKMLPEWLRSRFRMGELAKVAEDDFRLALRINEVKWTEWKTHVSFLNEDPGPVRRTDFNKIQDSSRNNSKTTLNAFEEVEEFPETSV",4
2,"human TRPV3 single-cysteine construct A721C (cysteine-free background, K169A) (natural protein, UniProt Q8NET8 1-790, looked up, C721 labelled with sulfo-Cy3 maleimide or sulfo-Cy5 maleimide (1:1 mixture) in the FRET samples, human TRPV3, full length; printed as A721C on the cysteine-free construct, so the native C721 stands again and the other 12 cysteines are replaced; K169A added; Homotetrameric channel in DDM/CHS with lipids; also called hTRPV3 A721C; C-terminal domain construct; source: Sf9 cells, baculovirus (Bac-to-Bac), purified (DDM/CHS solubilisation, anti-FLAG resin)) MKAHPKEMVPLMGKRVAAPSGNPAILPEKRPAEITPTKKSAHFFLEIEGFEPNPTVAKTSPPVFSKPMDSNIRQAISGNADDMDSPQSPQDDVTETPSNPNSPSAQLAKEEQRRKKRRLKKRIFAAVSEGAVEELVELLVELQELARRRHDEDVPDFLMHKLTASDTGATALMKALLNINPNTKEIVRILLAFAEENDILGRFINAEYTEEAYEGQTALNIAIERRQGDIAALLIAAGADVNAHAKGAFFNPKYQHEGFYFGETPLALAAATNQPEIVQLLMEHEQTDITSRDSRGNNILHALVTVAEDFKTQNDFVKRMYDMILLRSGNWELETTRNNDGLTPLQLAAKMGKAEILKYILSREIKEKRLRSLSRKFTDWAYGPVSSSLYDLTNVDTTTDNSVLEITVYNTNIDNRHEMLTLEPLHTLLHMKWKKFAKHMFFLSFLFYFFYNITLTLVSYYRPREEEAIPHPLALTHKMGWLQLLGRMFVLIWAMLISVKEGIAIFLLRPSDLQSILSDAWFHFVFFIQAVLVILSVFLYLFAYKEYLAFLVLAMALGWANMLYYTRGFQSMGMYSVMIQKVILHDVLKFLFVYIVFLLGFGVALASLIEKAPKDNKDASSYGSFSDAVLELFKLTIGLGDLNIQQNSKYPILFLFLLITYVILTFVLLLNMLIALMGETVENVSKESERIWRLQRARTILEFEKMLPEWLRSRFRMGELCKVAEDDFRLALRINEVKWTEWKTHVSFLNEDPGPVRRTDFNKIQDSSRNNSKTTLNAFEEVEEFPETSV",4
3,"human TRPV3 single-cysteine construct L513C (cysteine-free background, K169A) (natural protein, UniProt Q8NET8 1-790, looked up, C513 labelled with sulfo-Cy3 maleimide or sulfo-Cy5 maleimide (1:1 mixture) in the FRET samples, human TRPV3, full length; all 13 native cysteines replaced, L513C and K169A added; Homotetrameric channel in DDM/CHS with lipids; also called hTRPV3 L513C; S2-S3 linker construct; source: Sf9 cells, baculovirus (Bac-to-Bac), purified (DDM/CHS solubilisation, anti-FLAG resin)) MKAHPKEMVPLMGKRVAAPSGNPAILPEKRPAEITPTKKSAHFFLEIEGFEPNPTVAKTSPPVFSKPMDSNIRQAISGNADDMDSPQSPQDDVTETPSNPNSPSAQLAKEEQRRKKRRLKKRIFAAVSEGAVEELVELLVELQELARRRHDEDVPDFLMHKLTASDTGATALMKALLNINPNTKEIVRILLAFAEENDILGRFINAEYTEEAYEGQTALNIAIERRQGDIAALLIAAGADVNAHAKGAFFNPKYQHEGFYFGETPLALAAATNQPEIVQLLMEHEQTDITSRDSRGNNILHALVTVAEDFKTQNDFVKRMYDMILLRSGNWELETTRNNDGLTPLQLAAKMGKAEILKYILSREIKEKRLRSLSRKFTDWAYGPVSSSLYDLTNVDTTTDNSVLEITVYNTNIDNRHEMLTLEPLHTLLHMKWKKFAKHMFFLSFLFYFFYNITLTLVSYYRPREEEAIPHPLALTHKMGWLQLLGRMFVLIWAMLISVKEGIAIFLLRPSDCQSILSDAWFHFVFFIQAVLVILSVFLYLFAYKEYLAFLVLAMALGWANMLYYTRGFQSMGMYSVMIQKVILHDVLKFLFVYIVFLLGFGVALASLIEKAPKDNKDASSYGSFSDAVLELFKLTIGLGDLNIQQNSKYPILFLFLLITYVILTFVLLLNMLIALMGETVENVSKESERIWRLQRARTILEFEKMLPEWLRSRFRMGELAKVAEDDFRLALRINEVKWTEWKTHVSFLNEDPGPVRRTDFNKIQDSSRNNSKTTLNAFEEVEEFPETSV",4
4,"human TRPV3 single-cysteine construct A619C (cysteine-free background, K169A) (natural protein, UniProt Q8NET8 1-790, looked up, C619 labelled with sulfo-Cy3 maleimide or sulfo-Cy5 maleimide (1:1 mixture) in the FRET samples, human TRPV3, full length; printed as A619C on the cysteine-free construct, so the native C619 stands again and the other 12 cysteines are replaced; K169A added; Homotetrameric channel in DDM/CHS with lipids; also called hTRPV3 A619C; pore turret construct; source: Sf9 cells, baculovirus (Bac-to-Bac), purified (DDM/CHS solubilisation, anti-FLAG resin)) MKAHPKEMVPLMGKRVAAPSGNPAILPEKRPAEITPTKKSAHFFLEIEGFEPNPTVAKTSPPVFSKPMDSNIRQAISGNADDMDSPQSPQDDVTETPSNPNSPSAQLAKEEQRRKKRRLKKRIFAAVSEGAVEELVELLVELQELARRRHDEDVPDFLMHKLTASDTGATALMKALLNINPNTKEIVRILLAFAEENDILGRFINAEYTEEAYEGQTALNIAIERRQGDIAALLIAAGADVNAHAKGAFFNPKYQHEGFYFGETPLALAAATNQPEIVQLLMEHEQTDITSRDSRGNNILHALVTVAEDFKTQNDFVKRMYDMILLRSGNWELETTRNNDGLTPLQLAAKMGKAEILKYILSREIKEKRLRSLSRKFTDWAYGPVSSSLYDLTNVDTTTDNSVLEITVYNTNIDNRHEMLTLEPLHTLLHMKWKKFAKHMFFLSFLFYFFYNITLTLVSYYRPREEEAIPHPLALTHKMGWLQLLGRMFVLIWAMLISVKEGIAIFLLRPSDLQSILSDAWFHFVFFIQAVLVILSVFLYLFAYKEYLAFLVLAMALGWANMLYYTRGFQSMGMYSVMIQKVILHDVLKFLFVYIVFLLGFGVALASLIEKAPKDNKDCSSYGSFSDAVLELFKLTIGLGDLNIQQNSKYPILFLFLLITYVILTFVLLLNMLIALMGETVENVSKESERIWRLQRARTILEFEKMLPEWLRSRFRMGELAKVAEDDFRLALRINEVKWTEWKTHVSFLNEDPGPVRRTDFNKIQDSSRNNSKTTLNAFEEVEEFPETSV",4
